Tests used:
[1] = target: HIV-1 SUMA d736-68 envelope (HIV-1 group M)
[2] = target: SIVcpz GAB-2 62 fl envelope (SIVcpz (P.t.t))
[3] = target: HIV-1 MN-25 envelope (HIV-1 group M)
[4] = target: HIV-1 MN-8 envelope (HIV-1 group M)
[5] = target: HIV-1 SUMA d736-73 envelope (HIV-1 group M)
[6] = target: HIV-1 WEAU 16-8M envelope (HIV-1 group M)
[7] = target: SIVcpz GAB-1 fl envelope (SIVcpz (P.t.t)) (UniProt P17281)
[8] = target: HIV-1 NL4.3 envelope (HIV-1 group M)
[9] = target: [Phe^23]M47; test: SPR
[10] = target: [Phe^23]M33; test: SPR
[11] = target: CD4M47; test: SPR
[12] = target: CD4M33; test: SPR

Sequence of SIVcpz GAB-1 fl envelope (SIVcpz (P.t.t)) (P17281 32-854): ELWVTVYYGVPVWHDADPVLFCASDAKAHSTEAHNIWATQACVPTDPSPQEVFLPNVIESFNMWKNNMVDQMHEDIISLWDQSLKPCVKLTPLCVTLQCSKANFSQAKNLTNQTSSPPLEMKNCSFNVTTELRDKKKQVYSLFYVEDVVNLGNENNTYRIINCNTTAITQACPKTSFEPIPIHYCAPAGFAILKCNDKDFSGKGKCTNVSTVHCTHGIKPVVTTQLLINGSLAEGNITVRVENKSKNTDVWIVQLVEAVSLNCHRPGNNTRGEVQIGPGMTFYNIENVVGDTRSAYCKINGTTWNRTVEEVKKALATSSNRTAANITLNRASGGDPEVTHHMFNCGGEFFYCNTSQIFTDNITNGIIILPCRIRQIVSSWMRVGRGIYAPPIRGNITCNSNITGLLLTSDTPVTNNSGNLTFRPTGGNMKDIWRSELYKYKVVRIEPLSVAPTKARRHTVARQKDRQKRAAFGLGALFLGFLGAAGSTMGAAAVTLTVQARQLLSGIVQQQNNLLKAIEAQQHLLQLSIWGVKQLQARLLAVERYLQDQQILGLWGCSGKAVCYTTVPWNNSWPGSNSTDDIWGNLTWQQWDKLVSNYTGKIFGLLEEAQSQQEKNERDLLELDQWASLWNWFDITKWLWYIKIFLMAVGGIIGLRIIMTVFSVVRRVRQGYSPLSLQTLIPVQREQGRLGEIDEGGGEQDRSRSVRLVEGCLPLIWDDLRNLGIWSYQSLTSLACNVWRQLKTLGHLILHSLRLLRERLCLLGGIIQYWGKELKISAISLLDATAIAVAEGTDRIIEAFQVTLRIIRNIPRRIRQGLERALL

| Substance | IC50 of neutralisation, HIV-entry assay on JC53BL-13 indicator cells [1] | IC50 of neutralisation, HIV-entry assay on JC53BL-13 indicator cells [2] | IC50 of neutralisation, HIV-entry assay on JC53BL-13 indicator cells [3] | IC50 of neutralisation, HIV-entry assay on JC53BL-13 indicator cells [4] | IC50 of neutralisation, HIV-entry assay on JC53BL-13 indicator cells [5] | IC50 of neutralisation, HIV-entry assay on JC53BL-13 indicator cells [6] | IC50 of neutralisation, HIV-entry assay on JC53BL-13 indicator cells [7] | IC50 of neutralisation, HIV-entry assay on JC53BL-13 indicator cells [8] | Kd [9] | koff [9] | kon [9] | Kd [10] | koff [10] | kon [10] | Kd [11] | koff [11] | kon [11] | Kd [12] | koff [12] | kon [12] |
| --- | --- | --- | --- | --- | --- | --- | --- | --- | --- | --- | --- | --- | --- | --- | --- | --- | --- | --- | --- | --- |
| CD4M47 (designed binder) | 0.003 µM | 0.23 µM | 0.15 µM | 0.011 µM | 0.37 µM | 0.064 µM | 0.15 µM | 0.003 µM | – | – | – | – | – | – | – | – | – | – | – | – |
| CD4M33 (designed binder) | 0.004 µM | 0.4 µM | 0.35 µM | 0.034 µM | 0.48 µM | 0.085 µM | 0.34 µM | 0.005 µM | – | – | – | – | – | – | – | – | – | – | – | – |
| [Phe^23]M33 (designed binder) | – | 1 µM | 3.6 µM | 0.085 µM | 8.5 µM | 0.13 µM | 0.35 µM | 0.013 µM | – | – | – | – | – | – | – | – | – | – | – | – |
| [Phe^23]M47 (designed binder) | 0.007 µM | 0.29 µM | 0.32 µM | 0.015 µM | 0.95 µM | 0.047 µM | 0.069 µM | 0.004 µM | – | – | – | – | – | – | – | – | – | – | – | – |
| YU2 gp120 (from UniProt P35961 32-498) (natural protein) | – | – | – | – | – | – | – | – | 0.00387 µM | 0.000427 s⁻¹ | 110000 M⁻¹ s⁻¹ | 0.0351 µM | 0.00475 s⁻¹ | 135000 M⁻¹ s⁻¹ | 0.00212 µM | 0.000741 s⁻¹ | 349000 M⁻¹ s⁻¹ | 0.0125 µM | 0.00272 s⁻¹ | 218000 M⁻¹ s⁻¹ |
